The text below walks through data of the supplement of paper PMC12042874.

The nature of the data set: amyloid nucleation score (Sup35N fusion, yeast selection) (log enrichment); library NNK2; higher = more nucleation; inactive = no reads after selection. Put shortly: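 Using DiMSum, nucleation scores were taken as the log enrichment of output over input reads, centred on the mode score of non-aggregating sequences. The input and output reads came from Illumina sequencing of plasmid inserts, with sequences under 100 input reads excluded. The yeast were psi-negative, expressed Sup35N fused to peptides of 20 random codons, were induced with 100 μM copper sulfate for 24 hours, and were grown 7 days at 30°C on medium lacking adenine and uracil.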

± gives the uncertainty stated by the source.

For VSQFYSMPLTSSYWSLVSSL, the amyloid nucleation score stood at 0.147 ± 0.65.
Next, DVRFVTEFKSYRSCCKQSMF: 2.42 ± 0.054; LTLYSGVRCFSSYLP: 0.012 ± 0.41.
On to TYIRSVYDAFAC, for which the amyloid nucleation score entry was “inactive”.
WKGSEELRSGMAYVDGTGGE displayed an amyloid nucleation score of 1.32 ± 0.39.
In turn, DWRFRSGISISKYLVINLGD came in with an amyloid nucleation score of 5.79 ± 0.063.
Regarding PVNCGWQGEDRTVEILHAHG, the amyloid nucleation score came to 1.13 ± 0.28.
With NKVVGNTNTFLEND the figure was 3.91 ± 0.094; with MVVDFVVYITVCSFRFKQTF, 1.97 ± 0.18.
Next, RLIIPIQSCLWGGWYRTGET: 8.106 ± 0.054; GSCNASVPVQV: 0.057 ± 0.76.
Next, LNSMF: 0.056 ± 0.31; GVDFKVVTKSWIIYNYIIGM: 3.07 ± 0.064; ENNFYY: 0.953 ± 0.26.
For NAVYACLVGEVLWSSISTLS, the amyloid nucleation score was 0.058 ± 0.54.
With PISWGRLFNMVPR the figure was -0.98 ± 0.55.
With HEAYLPRLNDVTTSPSPCPY the figure was 0.487 ± 0.62.
QNGTERGFFCSKLNRSVTLL displayed an amyloid nucleation score of 0.358 ± 0.65.
Next, LFLSGKEIPMNVFTIVCTDP: “inactive”; WINVGCVCLMVMHILPI: 5.4 ± 0.073; DQLVLELHWTESILSYVVMP: 0.816 ± 0.48.
FEGNGCSILWLSFCRWAQ came in with an amyloid nucleation score of 0.98 ± 0.4.
LCFNLLNPCGRFGVECGCVL registered an amyloid nucleation score of 4.53 ± 0.069.
Substance EGSLPLGRSSCPGTLHDGMI returned an amyloid nucleation score of 0.922 ± 0.34.
Next, GQCPIHMCGRNTYMK: 0.05 ± 0.32; AQWCEGVVSLQLSWVVCVEG: 1.16 ± 0.34; KIRSLCPRRKVILSASGQQL: 0.971 ± 0.17.
As to GYMRSLGHYSADVMEYLYNW, the amyloid nucleation score is 0.052 ± 0.45.
For the substance DYVNGGCLKFKNWRWKFSLS, the amyloid nucleation score was -0.349 ± 0.48.
With TVATRHYNLNGQSWKKWAQ the figure was 0.059 ± 0.23.
In turn, YSLFTT gave an amyloid nucleation score of -0.451 ± 0.76.
Next, MIVFLYRLY: -0.061 ± 0.39.
Substance RLTQCLVHRPYPV yielded an amyloid nucleation score of 0.572 ± 0.3.
Next, HYMDSNIVLNSAKSRRKDAW: 0.132 ± 0.24.
Regarding VSVGNPFSVNRQVYCPTTEW, the amyloid nucleation score was -1.38 ± 0.62.
Next, KVFIANTIGHWCMNQQIMML: 0.217 ± 0.36.
As to LCGTLLIMKRVMSGYNLQAK, the amyloid nucleation score is -0.37 ± 0.26.
Next, EICRY: “inactive”.
Next, FEIDCIKIVCKASYHGLSGT: 2.99 ± 0.1; YFMTKETLHC: -1.64 ± 0.54; SNLNPVHSDLLMYEMPCNLT: -0.492 ± 1.1.
With LNRVGPLVILPIRHLQSTSL the figure was 0.65 ± 0.23; with SIARHFRGFV, 0.734 ± 0.47; with FVMNGPLWMTLANMSMNHNL, 4.21 ± 0.06.
KSMEGSNVMSRRYNWPWKDS showed an amyloid nucleation score of 0.062 ± 0.63.
For SSASTRDEKGGSGALERERC, the amyloid nucleation score is -0.243 ± 1.1.
With FYSLLCTFPSLLTDLLLVHR the figure was -0.66 ± 0.26.
Next, LSSPDVPNIHAALRTRTGWA: -0.328 ± 0.27; MFNVLIGVGRAGVNNPGHSL: 0.343 ± 0.64; TDVPSRIGPDMGKYLKAES: 0.655 ± 0.62.
YATKFN: the amyloid nucleation score was determined as 0.058 ± 0.79.
The substance KCNVMRQMRFMLPFTVIVVL returned an amyloid nucleation score of 0.204 ± 0.31.
As to MLRPAAHDGVKASYVKFKI, the amyloid nucleation score worked out at 0.489 ± 0.45.
The substance QNYRNSGVKLHTRRIISCNV gave an amyloid nucleation score of -0.526 ± 0.36.
With VLPQDKNMILYYKSLLHLFC the figure was 0.823 ± 0.44; with STHSGLSMT, 0.877 ± 0.27; with LRVGSRKVRVWSLVSFCLVV, -0.271 ± 0.42.
Next, EGTRIDLVKRRVNLWCI: -0.296 ± 0.76; VKGGSRS: -0.186 ± 0.49.
With YVKVVFCFDLAAMTSRRFYE the figure was 0.228 ± 1; with CFWWNPGSILIRWCLKVLPG, -1.59 ± 0.54.
Consider RLMFLVFSESSKYSALHMWG, for which the amyloid nucleation score was 0.939 ± 0.19.
In turn, MGRTMILRSLDQMMVITVGL showed an amyloid nucleation score of -0.598 ± 0.36.
In turn, IDLTHECVRVWVDSKLLSPF displayed an amyloid nucleation score of -0.742 ± 1.1.
Next, ICFNTSLVPECKHSRSEFDS: 0.643 ± 0.64.
Next, YYDSYPVT: 0.013 ± 0.28; CYMCWFNIILLQKFKRQGVL: 4.29 ± 0.063; YSLLCWVYIRSLNSLNKCCG: 3.15 ± 0.075.
Next, SEFYIRLQYNNVVIVDLFEV: -0.701 ± 0.63; HISLVSCHEM: -0.213 ± 1.1; LMQVSA: 0.829 ± 0.41.
As for LVKCHANGCFPYLSTIFIRP, the amyloid nucleation score amounted to 0.156 ± 0.41.
Next, VRDVKLLPKMVGSNIIGSVL: “inactive”; TTLITVSVT: “inactive”.
The substance YVGHRTMMKFTIIVIYYMYP displayed an amyloid nucleation score of -1.5 ± 1.
Next, IRCLFVT: “inactive”; CFLMNKVT: -1.5 ± 0.49.
Next, KYFVINPLIPIGQMEDIKLL: -0.156 ± 0.33; RKSYPRIYVHPSWKCVGDRY: 0.066 ± 0.41; SFNRS: 0.87 ± 0.31.
With GLSWPTNRCRRALMESTSAP the entry was “inactive”; with CGNNCTQYRHDWWGGMKLRD, 2.38 ± 0.085; with MGEYFSMALYAPYTWVFMSV, -1.55 ± 1.
For ALATFVTPVAESA, the amyloid nucleation score turned out to be 4.05 ± 0.05.
With MTYCVN the figure was 3.87 ± 0.067.
Next, FYITRLVHFNLIYEGLGFLR: 1.05 ± 0.23; GVGVLGVLNYVCWLMQCCGL: 0.987 ± 0.22.
On to SYYDGCQS, for which the amyloid nucleation score came to 0.646 ± 0.49.
Take QWVVLVD: the amyloid nucleation score is -0.016 ± 0.65.
With CLRILGDISSFRGMRHTTLH the figure was 0.042 ± 1.1; with PGTKLLSSVNAQRDSLKKGG, -0.478 ± 0.4; with MRYEALMHPWSWRFR, 1.06 ± 0.12.
SSRYPVIWESFVPNWTNSHF showed an amyloid nucleation score of -1.22 ± 1.1.
Next, LCYMFIFRTWMLLWVQTMKN: “inactive”; QELIDIGTNSFVDCCS: “inactive”; NNLKLCNRTMCLVYEVCVTD: -1.23 ± 0.62.
Substance CGMISLSSNVMSFALPFLYY returned an amyloid nucleation score of 0.824 ± 0.15.
In the case of LLTYYFVLTLVPSMFTSFVF, the amyloid nucleation score worked out at 1.49 ± 0.15.
MFVFRCVVRTCRSDHENDHS yielded an amyloid nucleation score of 4.987 ± 0.049.
Next, SHLKMDNPCLGF: -0.121 ± 0.25.
With LLGVFTETKGNP the figure was 2.53 ± 0.11.
Substance LSRLN displayed an amyloid nucleation score of -0.055 ± 0.53.
Next, MEQELMFREWLW: -0.284 ± 0.48; YCYEPLTC: 0.508 ± 0.49; LMNGVGLFNQMGWVVERYLE: -0.357 ± 0.4.
Next, VGPPEIWVEFFAV: -0.813 ± 1.1; CWNACSLRLNDGAGDPGWRD: 0.36 ± 0.22; DTPGHGNACSKIRP: -0.159 ± 0.55.
RVRKNCRFWSNCSCIVMVGR: the amyloid nucleation score was found to be 5.07 ± 0.059.
Next, FPFSGFVDFSVLVLRYKGSP: 1.82 ± 0.16.
With VFSGTSMRGTEEIKMSWCEK the figure was 7.686 ± 0.044.
With PSLRSSCCWNFRPP the figure was 0.175 ± 0.42.
In turn, LPSVDQTATS returned an amyloid nucleation score of -0.481 ± 0.35.
With CFKLTNINAL the entry was “inactive”.
IFTKNFIPCDFFMS: the amyloid nucleation score is -2.05 ± 0.76.
With HVILM, the amyloid nucleation score turned out to be 1.65 ± 0.33.
In the case of NMIYYMFEYAWPCIVER, the amyloid nucleation score was determined as 7.37 ± 0.08.
The substance RPNFFVLNSNMNNYVQARVP returned an amyloid nucleation score of 4.59 ± 0.047.
GIFYSRL had an amyloid nucleation score of -0.089 ± 0.61.
Next, HFCYYMCFEWLDTIVAYYLG: -0.337 ± 1.1.
RHRKMS gave an amyloid nucleation score of -0.496 ± 0.23.
In turn, LLLVHL displayed an amyloid nucleation score of 1.08 ± 0.68.
With YIGQVGYRCSAVGQSYSRPG the figure was 1.87 ± 0.47; with ANTVHLKMLANSRSPDGTFR, 0.441 ± 0.32; with FSCSLQRIGEMSRDKSYTPA, 0.503 ± 0.66.
With YTNAFRPRSVRLTVIRIGQY the figure was 4.07 ± 0.11; with TFLWK, -0.349 ± 0.55; with TFFMVGNMNNTPSPRPARTK, 4.57 ± 0.089.
On to VTMIPA, for which the amyloid nucleation score is -0.207 ± 0.63.
As to LWLADDSATRV, the amyloid nucleation score came to 0.814 ± 0.19.
With GVWIFKYCRNNWFGFLIISA the figure was 3.33 ± 0.1.
Next, SHFCVVCEYTLVSSYHR: 5.09 ± 0.09; SRQRVMLLC: “inactive”; GGTDMATFNVPKNEVRDRRG: 1.4 ± 0.25.
In turn, GGELP came in with an amyloid nucleation score of -0.719 ± 0.79.
Consider YLSTGNNMFLNVQDSQGA, for which the amyloid nucleation score is 1.36 ± 0.13.
Next, RNFRSCP: 0.797 ± 0.44.
As for DGYMMGALQNYCNCTRFVLN, the amyloid nucleation score entry was “inactive”.
For the substance SDRQHNAYNFLFVL, the amyloid nucleation score stood at 4.6 ± 0.051.
With FIEGVRMHLRGM the figure was 2.86 ± 0.094; with SSPKSWNILS, 0.106 ± 0.48.
Next, CSVCYFPEGNLFNGE: “inactive”.
